The target of this assay is Type V collagen from human placenta (human) (UniProt P20908). The experiment in a line: ELISA; type V collagen coated on 96-well plates (10 ug/ml in carbonate coating buffer, overnight 4 °C), blocked with 0.5 % BSA in TBS; about 1.0x10^8 whole bacteria per well, 1 h at 37 °C; adhered bacteria detected with anti-serotype a or anti-serotype b whole-cell polyclonal antibody and HRP secondary; activity normalised to a reference strain set at 100 %.

Consider 2 substances from article PMC10233464.

Chain of UniProt P20908 (P20908 38-1605, chain 1 of 2): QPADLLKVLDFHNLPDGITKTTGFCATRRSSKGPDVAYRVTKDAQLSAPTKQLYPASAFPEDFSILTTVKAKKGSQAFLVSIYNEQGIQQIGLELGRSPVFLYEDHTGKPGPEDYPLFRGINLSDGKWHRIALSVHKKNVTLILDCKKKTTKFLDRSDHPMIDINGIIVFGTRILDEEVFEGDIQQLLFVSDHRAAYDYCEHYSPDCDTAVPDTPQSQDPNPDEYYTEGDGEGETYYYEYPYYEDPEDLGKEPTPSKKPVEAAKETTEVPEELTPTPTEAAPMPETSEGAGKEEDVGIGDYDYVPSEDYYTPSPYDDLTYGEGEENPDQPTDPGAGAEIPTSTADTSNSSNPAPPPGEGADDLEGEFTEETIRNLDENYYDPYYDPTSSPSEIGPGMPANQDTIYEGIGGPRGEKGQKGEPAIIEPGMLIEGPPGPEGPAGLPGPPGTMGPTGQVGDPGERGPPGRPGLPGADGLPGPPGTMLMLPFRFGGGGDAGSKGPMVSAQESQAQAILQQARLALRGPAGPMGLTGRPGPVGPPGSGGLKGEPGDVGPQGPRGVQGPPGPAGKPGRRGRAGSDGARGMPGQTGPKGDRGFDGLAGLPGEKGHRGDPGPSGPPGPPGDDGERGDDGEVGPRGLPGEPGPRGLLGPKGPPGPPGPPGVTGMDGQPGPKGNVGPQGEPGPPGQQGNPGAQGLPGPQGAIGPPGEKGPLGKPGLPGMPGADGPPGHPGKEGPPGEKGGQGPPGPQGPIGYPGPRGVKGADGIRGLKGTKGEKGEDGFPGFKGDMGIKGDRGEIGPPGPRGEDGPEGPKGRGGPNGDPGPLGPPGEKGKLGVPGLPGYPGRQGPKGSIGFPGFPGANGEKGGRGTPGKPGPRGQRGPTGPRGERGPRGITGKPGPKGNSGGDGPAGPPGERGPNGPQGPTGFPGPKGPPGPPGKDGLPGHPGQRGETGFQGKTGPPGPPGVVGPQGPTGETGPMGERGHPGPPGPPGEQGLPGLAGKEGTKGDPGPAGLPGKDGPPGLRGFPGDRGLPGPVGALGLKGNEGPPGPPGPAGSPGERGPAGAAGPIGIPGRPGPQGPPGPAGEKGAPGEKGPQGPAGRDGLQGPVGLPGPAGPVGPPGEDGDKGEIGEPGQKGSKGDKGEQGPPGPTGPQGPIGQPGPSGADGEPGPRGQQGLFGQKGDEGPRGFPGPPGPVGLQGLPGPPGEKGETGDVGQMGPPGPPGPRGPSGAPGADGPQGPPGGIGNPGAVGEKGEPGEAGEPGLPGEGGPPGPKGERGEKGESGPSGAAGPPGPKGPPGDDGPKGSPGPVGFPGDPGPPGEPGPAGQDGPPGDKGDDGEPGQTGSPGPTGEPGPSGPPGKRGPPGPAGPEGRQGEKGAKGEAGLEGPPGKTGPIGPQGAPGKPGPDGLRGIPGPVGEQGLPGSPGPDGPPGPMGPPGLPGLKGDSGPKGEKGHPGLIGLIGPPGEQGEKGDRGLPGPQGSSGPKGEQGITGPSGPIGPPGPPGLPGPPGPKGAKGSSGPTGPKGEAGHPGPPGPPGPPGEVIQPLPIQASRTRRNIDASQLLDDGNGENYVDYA
Chain of UniProt P20908 (P05997 27-1229, chain 2 of 2, further chain): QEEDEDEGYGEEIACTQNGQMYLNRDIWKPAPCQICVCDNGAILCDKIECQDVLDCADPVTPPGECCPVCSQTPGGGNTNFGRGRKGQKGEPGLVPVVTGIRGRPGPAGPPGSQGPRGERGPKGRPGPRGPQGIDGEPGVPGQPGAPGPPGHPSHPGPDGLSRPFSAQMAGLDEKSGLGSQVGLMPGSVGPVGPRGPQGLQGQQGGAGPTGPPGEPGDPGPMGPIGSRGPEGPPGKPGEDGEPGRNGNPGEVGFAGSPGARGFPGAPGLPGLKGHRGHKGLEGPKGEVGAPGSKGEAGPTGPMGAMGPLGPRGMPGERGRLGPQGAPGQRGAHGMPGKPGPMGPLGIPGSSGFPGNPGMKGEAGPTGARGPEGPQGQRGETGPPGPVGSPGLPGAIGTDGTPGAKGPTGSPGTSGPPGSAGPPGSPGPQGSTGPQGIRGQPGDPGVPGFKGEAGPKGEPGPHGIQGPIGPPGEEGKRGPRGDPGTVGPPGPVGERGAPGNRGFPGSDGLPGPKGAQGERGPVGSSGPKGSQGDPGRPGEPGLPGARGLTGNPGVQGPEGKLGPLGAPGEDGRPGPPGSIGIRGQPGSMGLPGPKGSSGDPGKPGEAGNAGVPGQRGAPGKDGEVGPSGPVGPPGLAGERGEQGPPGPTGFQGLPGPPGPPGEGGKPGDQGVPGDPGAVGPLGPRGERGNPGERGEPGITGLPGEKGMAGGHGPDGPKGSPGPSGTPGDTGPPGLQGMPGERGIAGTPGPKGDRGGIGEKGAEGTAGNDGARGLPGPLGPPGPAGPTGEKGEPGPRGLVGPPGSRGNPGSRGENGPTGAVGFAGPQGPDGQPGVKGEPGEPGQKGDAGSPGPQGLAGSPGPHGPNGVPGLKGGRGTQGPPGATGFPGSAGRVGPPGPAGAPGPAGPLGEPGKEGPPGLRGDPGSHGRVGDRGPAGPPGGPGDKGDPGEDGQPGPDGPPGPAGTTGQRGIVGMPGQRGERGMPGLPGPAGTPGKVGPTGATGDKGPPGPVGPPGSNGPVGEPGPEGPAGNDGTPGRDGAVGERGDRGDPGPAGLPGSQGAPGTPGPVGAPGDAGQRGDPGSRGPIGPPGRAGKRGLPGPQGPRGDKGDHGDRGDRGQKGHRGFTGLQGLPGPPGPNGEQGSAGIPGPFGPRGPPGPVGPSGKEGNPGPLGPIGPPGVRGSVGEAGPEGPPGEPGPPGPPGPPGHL

On to “a-EmaA (extracellular matrix protein adhesin A, 173 kDa isoform of serotype a) expressed from pKM753 in strain ATCC 29523 (natural protein)”, for which the fold increase in collagen binding over the emaA mutant strain ATCC 29523 was greater than 2 fold. As for “a-EmaA expressed from a plasmid in the serotype b O-PS-deficient rmlC mutant strain (natural protein)”, the fold increase in collagen binding over the rmlC mutant strain was 4.6 fold and the fold of the collagen binding of the serotype b wild-type strain was greater than 2 fold.
